Experimental data as given in US20240117030A1 (Pfizer, published 2024).
Numbering of substitutions follows the chain as printed.

Assays:
[1] = target: human IL-13 (human, UniProt P35225 35-146); experiment: cell-based or functional assay
[2] = target: T1, human IL-4 (human, UniProt P05112 25-153); experiment: cell-based or functional assay
T1 sequence (looked up): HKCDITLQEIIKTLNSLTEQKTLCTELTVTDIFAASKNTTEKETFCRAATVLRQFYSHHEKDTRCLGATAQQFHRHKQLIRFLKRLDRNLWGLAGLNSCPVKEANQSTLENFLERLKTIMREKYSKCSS

human IL-13, sequence (P35225 35-146 limits assumed): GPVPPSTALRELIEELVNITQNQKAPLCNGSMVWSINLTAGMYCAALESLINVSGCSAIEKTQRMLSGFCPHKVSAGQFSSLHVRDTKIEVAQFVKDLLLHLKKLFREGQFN

B1: IL413TSLP-0250 (other)
heavy: EVTLRESGPALVKPTQTLTLTCTFSGFSLSNFGEGLSWIRQPPGKGLEWLAHIYWDDDKRYNPSLKSRLTISKDTSRNQVVLTMTNMDPVDTATYYCARRETVFYWYFDVWGQGTTVTVSSASTKGPSVFPEAPSSKSTSGGTAALGCLVKDYFPEPVTVSWNSGALTSGVHTFPAVLQSSGLYSLGSVVTVPSSSLGTQTYICNVNHKPSNTKVDKKVEPKSCDKTHTCPPCPAPEAAGAPSVFLFPPKPKDTLMISRTPEVTCVVVDVSHEDPEVKFNWYVDGVEVHNAKTKPREEQYNSTYRVVSVLTVLHQDWLNGKEYKCKVSNKALPAPIEKTISKAKGQPREPQVYTLPPCREEMTKNQVSLSCAVKGFYPSDIAVEWESNGQPENNYKTTPPVLDSDGSFFLVSKLTVDKSRWQQGNVFSCSVMHEALHNHYTQKSLSLSPGK
chain 1: SYVLTQPPSVSVAPGQTARITCGGNNLGSKSVHWYQQKPGQAPVLVVYDDSDRPSWIPERFSGSNSGNTATLTISRGEAGDEADYYCQVWDSSSDHVVFGGGTKLTVLGQPKAAPSVTLFPPSSEELQANKATLVCLISDFYPGAVTVAWKADSSPVKAGVETTTPSKQSNNKYAASSYLSLTPEQWKSHRSYSCQVTHEGSTVEKTVAPTECSGGGGSEVQLVESGGGLVQPGGSLRLSCAASGFTFSSYAMSWVRQAPGKGLEWVASISSGDTTYYPDSVKGRFTISRDNAKNSLYLQMNSLRAEDTAVYYCARNEGYYFGLTLWGQGTLVTVSSASTKGPSVFPKAPSSKSTSGGTAALGCLVKDYFPEPVTVSWNSGALTSGVHTFPAVLQSSGLYSLSSSVTVPSSSLGTQTYICNVNHKPSNTKVDKKVEPKSCDKTHTCPPCPAPEAAGAPSVFLFPPKPKDTLMISRTPEVTCVVVDVSHEDPEVKFNWYVDGVEVHNAKTKPREEQYNSTYRVVSVLTVLHQDWLNGKEYKCKVSNKALPAPIEKTISKAKGQPREPQVCTLPPSREEMTKNQVSLWCLVKGFYPSDIAVEWESNGQPENNYKTTPPVLDSDGSFFLYSKLTVDKSRWQQGNVFSCSVMHEALHNHYTQKSLSLSPGK
light 1: DIQMTQSPSSLSASVGDRVTITCKASQSVDEDGDSYMNWYQQKPGKAPKLLIYAASNLESGVPSRFSGSGSGTDFTLTISSLQPEDFATYYCQQSNEDPPTFGGGTKVEIKRTVAAPSVFIFPPSDEQLKSGTASVSCLLNNFYPREAKVQWKVDNALQSGNSQESVTEQDSKDSTYSLKSTLTLSKADYEKHKVYACEVTHQGLSSPVTKSFNRGEC
light 2: B1 light 1 with Q27E, E31H, D32F, D34W, Y36L, M37V, N38H, A54R, P100W, K180D
chain 2: not shown
[1]
  a-hIL-13 bioassay (IC50, pM): 102 pM
[2]
  a-hIL-4 bioassay IC50, pM): 3.68 pM
